Holding throughout (test): pull-down binding Z-score (relative to library population); higher = stronger binding
What all share (details): RNA library: Library-2

Data set [1] concerns TO-N3-2 (biotin conjugate). The procedure, abridged:
(§1)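 To score binding, a beads-only signal was subtracted, barcoded replicate probes were averaged with the highest and lowest dropped, and the value was converted to a Z-score using the library mean and standard deviation. The input was 1 μg of Cy5- or Cy3-end-labelled RNA library, heat-folded in phosphate/NaCl/KCl buffer and mixed for 60 min at 25 °C with streptavidin beads carrying 100 pmol of biotin-conjugated small molecule. Bound RNA was eluted in hot SDS and hybridised to a DNA barcode microarray at 55.5 °C for 20 h.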

In a further data set the test system is TO-N3 (biotin conjugate). The procedure, abridged:
as §1

Data set [2] has as its system TO-3-N3-2 (biotin conjugate). The procedure, abridged: as §1
Data set [3] concerns TO-3-N3 (biotin conjugate). The procedure, abridged: as §1

For the sequence “CUUGAACAAUGGAACCUAGUAAUAGGUUUCCUAUUCCUUACAUGGAUUUGUCUUCUACAAUUUGCCUAUGCCAACAGGAAUAGGUUUUUGUAUAUAAUUAAG”, the “pull-down binding Z-score” value in data set [1] is -1.14; in the data set on TO-N3 (biotin conjugate), -1.12; in data set [2], -0.369; in data set [3], -0.828.

For “AGUUCAAGAACUUUACUCUCCAAUUUUUCUUAUUGUUGCGGCAAUAGUGUUUAUAACACUUUGCUUCACACUCAAAAGAAAGACAGAAUGAUUGAACU”, the “pull-down binding Z-score” value in data set [1] was -1.13; in the data set with TO-N3 (biotin conjugate), -1.27; in data set [2] it was -0.46; in data set [3], -0.889.

In the case of “UGUGAUUUUAAUAGCUUCUUAGGAGAAUGACA [SHAPE_invivo_SARS-CoV-2_Motif_573]”, the “pull-down binding Z-score” value in data set [1] was -0.333; in the data set on TO-N3 (biotin conjugate) it was -0.641; in data set [2], -0.182; in data set [3] it was -0.571.

Consider “GGGAGCUAUAAACAGCAGUCUCCC [IAV_invivo_HA_4_Motif_12+IAV_invivo_HA_4_Motif_12]”, for which the “pull-down binding Z-score” value in data set [1] was 0.468; in the data set with TO-N3 (biotin conjugate) it was 0.537; in data set [2], 0.213; in data set [3], 0.403.

As for “UAGGUGUUUUAAUGUCUAAUUUAGGCAUGCCUUCUUACUGUACUGGUUACAGAGAAGGCUAUUUGAACUCUACUAAUGUCACUAUUGCAACCUA”, the “pull-down binding Z-score” value is -0.12 in data set [1], -0.0965 in the data set with TO-N3 (biotin conjugate), 0.0583 in data set [2] and -0.221 in data set [3].

“GCUAGUGGGGGACAACCAAUCACUAAUUGUGUUAAGAUGUUGUGUACACACACUGGU”: the “pull-down binding Z-score” value in data set [1] is 0.564; in the data set on TO-N3 (biotin conjugate), 1.03; in data set [2], 0.649; in data set [3], 0.789.

As to “UGCAUUUCUUACCUAGAGUUUUUAGUGCA [DMSMaPseq_invitro_SARS-CoV-2_Motif_163]”, the “pull-down binding Z-score” value was -1.24 in data set [1], -1.09 in the data set on TO-N3 (biotin conjugate), -0.416 in data set [2] and -0.82 in data set [3].

Regarding GUUGAAGAAGUUACAAC, the “pull-down binding Z-score” value in data set [1] was -0.168; in the data set with TO-N3 (biotin conjugate), 0.365; in data set [2] it was 0.148; in data set [3], 0.355.

“ACGUGGCUUUGGAGACUCCGUGGAGGAGGUCUUAUCAGAGGCACGU”: the “pull-down binding Z-score” value in data set [1] is 0.34; in the data set on TO-N3 (biotin conjugate), 0.0366; in data set [2], 0.0243; in data set [3] it was -0.105.

Take “GGGUGGGUGGGUGGGUGGGUGGGUGGGUGGGU [G4_r(GGGU)8]”: the “pull-down binding Z-score” value in data set [1] came to 5.15; in the data set with TO-N3 (biotin conjugate), 7.37; in data set [2], 10.2; in data set [3], 9.08.

As to “GCAGCAAUAUGC [IAV_invivo_PA_3_Motif_2+IAV_invivo_PA_3_Motif_2]”, the “pull-down binding Z-score” value in data set [1] was -0.111; with TO-N3 (biotin conjugate), 0.548; in data set [2], -0.292; in data set [3], 0.588.

Turning to AGUUUUUGUACACAAUUAAACCGUGCUUUAACU, the “pull-down binding Z-score” value is -1.04 in data set [1], -0.618 with TO-N3 (biotin conjugate), -0.252 in data set [2] and -0.534 in data set [3].

As to GUGCCACUCCAUGGCAC, the “pull-down binding Z-score” value in data set [1] was -0.862; in the data set with TO-N3 (biotin conjugate), 0.324; in data set [2], -0.276; in data set [3] it was 0.641.

As to “AAUUGAUUCUUACUUUGUAGUUAAGAGACACACUUUCUCUAACUACCAACAUGAAGAAACAAUU”, the “pull-down binding Z-score” value in data set [1] is -0.614; in the data set on TO-N3 (biotin conjugate) it was 0.281; in data set [2], 0.0491; in data set [3], 0.502.

In the case of “AUUAGAGAAAACAACAGAGUUGUUAUUUCUAGU [DMSMaPseq_invitro_SARS-CoV-2_Motif_378]”, the “pull-down binding Z-score” value in data set [1] was -0.787; in the data set on TO-N3 (biotin conjugate), -0.17; in data set [2] it was -0.0987; in data set [3], 0.0547.

For “AUUGGCGACCCUGCUCAAU [DMSMaPseq_invitro_SARS-CoV-2_Motif_311]”, the “pull-down binding Z-score” value in data set [1] is -0.232; with TO-N3 (biotin conjugate), 0.0933; in data set [2] it was -0.309; in data set [3], 0.191.

“GGAAUUUGAACC [IAV_invivo_PB2_1_Motif_28+IAV_invivo_PB2_1_Motif_28]”: the “pull-down binding Z-score” value in data set [1] is -0.514; in the data set on TO-N3 (biotin conjugate) it was 0.0885; in data set [2] it was -0.147; in data set [3], 0.293.

Turning to GCCACUUGCGAAUUUUGUGGC, the “pull-down binding Z-score” value in data set [1] was -0.997; in the data set on TO-N3 (biotin conjugate) it was -0.312; in data set [2], -0.0945; in data set [3], 0.0442.

Consider “GUCUGGGAUCAACGAGUCAGCGGAC [IAV_invivo_PB1_2_Motif_28+IAV_invivo_PB1_2_Motif_28]”, for which the “pull-down binding Z-score” value in data set [1] was 0.401; in the data set with TO-N3 (biotin conjugate), -0.256; in data set [2] it was -0.51; in data set [3], -0.28.

With “GGGCCUCCCUGUUCUCAGCGGUCC [IAV_invivo_PA_3_Motif_11+IAV_invivo_PA_3_Motif_11]”, the “pull-down binding Z-score” value in data set [1] is -0.287; in the data set on TO-N3 (biotin conjugate), -0.152; in data set [2], -0.456; in data set [3], -0.00636.

Take “GCUAGAAAAUCAGC [SHAPE_invivo_SARS-CoV-2_Motif_531]”: the “pull-down binding Z-score” value in data set [1] was -0.164; with TO-N3 (biotin conjugate), -0.0963; in data set [2], 0.246; in data set [3] it was -0.186.

For “UUACAGAUCUUUACCAGGAGUUUUCUGUGGUGUAGAUGCUGUAA [SHAPE_invivo_SARS-CoV-2_Motif_187]”, the “pull-down binding Z-score” value is -1 in data set [1], -1.21 with TO-N3 (biotin conjugate), -0.414 in data set [2] and -0.96 in data set [3].

GGUUCACUAUAUGUUAAACCAGGUGGAACC: the “pull-down binding Z-score” value in data set [1] was -0.369; in the data set on TO-N3 (biotin conjugate), 0.506; in data set [2], 0.221; in data set [3], 0.612.

As for “AGUCAUAACAAGAGAAGUGGGUUUUGUCGUGCCUGGUUUGCCUGGCACGAUAUUACGCACAACUAAUGGUGACU [DMSMaPseq_invitro_SARS-CoV-2_Motif_162]”, the “pull-down binding Z-score” value in data set [1] was -0.252; in the data set with TO-N3 (biotin conjugate), -0.62; in data set [2], -0.178; in data set [3] it was -0.612.

Consider “CAGUACAAUUCUGUGAUGCCAUGCGAAAUGCUGGUAUUGUUGGUGUACUG”, for which the “pull-down binding Z-score” value was -0.171 in data set [1], -0.499 in the data set on TO-N3 (biotin conjugate), -0.441 in data set [2] and -0.432 in data set [3].

Turning to “GGGUUUACAAACAAUUUGAUACUUAUAACCU [DMSMaPseq_invitro_SARS-CoV-2_Motif_347]”, the “pull-down binding Z-score” value in data set [1] was -1.11; in the data set with TO-N3 (biotin conjugate) it was -0.828; in data set [2], -0.105; in data set [3] it was -0.652.

As for “GACAAUGUCUUAUCUACUUUUAUUUCAGCAGCUCGGCAAGGGUUUGUUGAUUCAGAUGUAGAAACUAAAGAUGUUGUU”, the “pull-down binding Z-score” value in data set [1] is -0.776; in the data set with TO-N3 (biotin conjugate), -0.599; in data set [2], -0.111; in data set [3] it was -0.56.

On to AACAGCAGACAACCCUUAAGGGUGUAGAAGCUGUU, for which the “pull-down binding Z-score” value was -0.918 in data set [1], -1.19 with TO-N3 (biotin conjugate), -0.692 in data set [2] and -0.872 in data set [3].

For the origin of these results see the supplement of paper PMC11865577.
